# Assay results: patent publication US8198236B2, “Methods and compositions for the treatment of cancer” (Washington University, priority 2007, dated 2012)
# What was measured:
# LRP = molecular target: T1, LRP (Homo sapiens, UniProt Q07954); experiment: 125I-Mesd binding to U87 cells and aortic smooth muscle cells expressing abundant LRP; conditions: 125I-Mesd 5 nM, 4 hours at 4° C.
# T1 construct: U87 cells and SMC express abundant LRP; endogenous in cells; host or cells: U87 glioblastoma cells; human aortic smooth muscle cells
# Protocol: (§1) Cells (2×10^5) were seeded into 12-well dishes 1 day prior to assay. Ligand-binding buffer (minimal Eagle's medium containing 0.6% BSA with a different concentration of radioligand, 0.6 ml/well) was added to cell monolayers, in the absence or the presence of 500 nM unlabeled RAP or 500 nM unlabeled Mesd, followed with incubation for 0-4 hours at 4° C. Thereafter, overlying buffer containing unbound ligand was removed, and cell monolayers were washed and lysed in low-SDS lysis buffer (62.5 mM Tris-HCl pH 6.8, 0.2% SDS, 10% v/glycerol) and counted.
# (§2) To determine whether Mesd binds to other members of the LDLR family, ^125I-Mesd binding analysis was performed with four groups of cells expressing different members of the LDLR family (FIG. 2). In the first experiment, HEK293 cells were transiently transfected with cDNAs for the LDLR, LRP5, LRP6 or empty pcDNA3 vector. […]
# LRP5 [1] = molecular target: T2, LRP5 (Homo sapiens, UniProt O75197); experiment: 125I-DKK1 binding to LRP5; conditions: FIG. 10B
# T2 sequence (O75197 32-1615): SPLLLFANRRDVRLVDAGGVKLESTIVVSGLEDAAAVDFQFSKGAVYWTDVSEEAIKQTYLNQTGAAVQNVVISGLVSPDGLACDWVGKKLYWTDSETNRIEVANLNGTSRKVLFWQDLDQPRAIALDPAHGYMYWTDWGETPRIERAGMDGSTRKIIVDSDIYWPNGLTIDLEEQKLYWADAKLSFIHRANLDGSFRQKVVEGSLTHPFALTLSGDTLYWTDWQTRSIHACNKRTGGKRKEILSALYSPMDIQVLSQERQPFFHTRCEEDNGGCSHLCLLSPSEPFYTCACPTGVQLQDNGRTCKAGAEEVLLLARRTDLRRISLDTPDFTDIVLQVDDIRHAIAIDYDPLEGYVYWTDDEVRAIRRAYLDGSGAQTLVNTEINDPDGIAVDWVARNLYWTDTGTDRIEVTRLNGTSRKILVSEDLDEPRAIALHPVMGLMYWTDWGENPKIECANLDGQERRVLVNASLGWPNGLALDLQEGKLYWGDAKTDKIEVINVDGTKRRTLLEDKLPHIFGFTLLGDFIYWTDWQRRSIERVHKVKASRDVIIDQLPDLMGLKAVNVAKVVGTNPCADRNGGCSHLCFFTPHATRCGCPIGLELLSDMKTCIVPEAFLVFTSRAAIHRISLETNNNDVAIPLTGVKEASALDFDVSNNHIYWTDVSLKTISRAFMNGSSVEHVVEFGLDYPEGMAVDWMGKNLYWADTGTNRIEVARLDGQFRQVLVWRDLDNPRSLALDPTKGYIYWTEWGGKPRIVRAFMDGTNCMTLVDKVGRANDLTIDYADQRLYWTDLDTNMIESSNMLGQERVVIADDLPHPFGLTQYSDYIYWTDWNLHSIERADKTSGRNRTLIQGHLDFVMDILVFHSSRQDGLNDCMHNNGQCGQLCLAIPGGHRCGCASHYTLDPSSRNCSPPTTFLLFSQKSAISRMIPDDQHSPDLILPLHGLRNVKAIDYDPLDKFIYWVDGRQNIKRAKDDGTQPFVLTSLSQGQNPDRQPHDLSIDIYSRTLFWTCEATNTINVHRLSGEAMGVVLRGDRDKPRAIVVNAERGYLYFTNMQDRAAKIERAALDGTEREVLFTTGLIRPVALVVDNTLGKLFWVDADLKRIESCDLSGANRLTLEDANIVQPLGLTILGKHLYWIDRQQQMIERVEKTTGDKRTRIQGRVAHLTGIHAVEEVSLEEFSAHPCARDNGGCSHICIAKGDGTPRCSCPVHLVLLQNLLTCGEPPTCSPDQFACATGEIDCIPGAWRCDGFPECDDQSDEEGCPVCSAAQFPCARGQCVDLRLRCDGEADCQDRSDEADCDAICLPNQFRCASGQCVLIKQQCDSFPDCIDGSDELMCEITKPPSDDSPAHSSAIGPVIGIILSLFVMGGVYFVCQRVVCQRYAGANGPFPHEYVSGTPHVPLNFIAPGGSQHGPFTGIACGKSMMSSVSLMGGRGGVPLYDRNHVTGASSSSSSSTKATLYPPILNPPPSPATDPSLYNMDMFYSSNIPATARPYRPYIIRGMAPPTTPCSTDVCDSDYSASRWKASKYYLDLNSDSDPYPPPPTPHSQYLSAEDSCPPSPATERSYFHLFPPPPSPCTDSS
# Protocol: In order to investigate the binding of Mesd polypeptide and an Mesd oligopeptide to either LRP5 or LRP6, binding assays were performed using ^125I-Mesd or ^125I-DKK1 (FIG. 10).
# HCC1187 cells = experiment: MTT assay of Wnt3a CM-stimulated growth of HCC1187 cells; type: cell-based, human; conditions: Mesd 1 μM, 24 h
# Protocol: Cell growth and cell proliferation were measured by MTT assay (Promega) and BrdU incorporation using the BrdU ELISA kit (Roche Molecular Systems) according to the manufacturers' instructions. […] Breast cancer cells expressing control or LRP6 shRNA were seeded into 48-well plates. MTT-labeling reagent was added to each well 24 h later, and plates were incubated at 37° C. for 4 h. After the incubation period, the formazan crystals were dissolved in an MTT solubilization reagent and the resulting color was quantified spectrophotometrically. In some experiments, cell proliferation was measured by BrdU incorporation using the BrdU ELISA kit (Roche Molecular Systems) according to the manufacturer's instructions. Briefly, cancer cells expressing control or LRP6 shRNA were plated on 96-well plate. Cells were incubated with BrdU for 24 h, and the newly synthesized BrdU-DNA was then determined by colorimetry using an ELISA reader. All experiments were performed three times in triplicate.
# In FIG. 20, * indicates p<0.05 compared to L cell CM; ** indicates p<0.01 compared to L cell CM.
# Wnt signaling = Wnt signaling in MMTV-Wnt1 tumors (GST-E-cadherin pull-down, c-Myc expression); type: in vivo, mice; conditions: GST-E-cadherin pull-down and c-Myc expression
# Protocol: The GST-E-cadherin pulldown assay was performed as previously described (2). Cells expressing control or LRP6 shRNA were treated with L cells or Wnt3a-conditioned media (CM) for 4 h. Free β-catenin was determined using a GST-E-cadherin pull-down assay. Cells were lysed for 30 minutes at 4° C. Protein concentrations in lysates were quantified, and equal quantities of total proteins from different samples were incubated with GST-E-cadherin Sepharose beads for 4 h at 4° C. After incubation, the beads were washed three times and the bound proteins were eluted and separated via SDS-PAGE. Western blotting was performed using antibody to β-catenin.
# In these experiments, mice bearing established MMTV-Wnt1 tumor transplants were divided into three groups (five animals per group) and were i.p. injected with PBS (vehicle), Mesd, or Mesd peptide every other day. Tumor volume was analyzed using caliper measurement. Data represent at least three independent experiments and each time point represents the mean tumor volume±SEM. *p<0.05; **p<0.01. […] Scale bar=50 μm.
# LRP5 [2] = molecular target: T2, LRP5; experiment: 125I-Mesd binding to HEK293 cells transiently transfected with LRP5; set-up: Plasmid pcDNA3.1C-Myc-hLRP5 containing the full-length human LRP5 cDNA; expressed in transfected cells; host or cells: HEK293 cells, transient transfection; conditions: 125I-Mesd 5 nM, 4 hours at 4° C.
# Protocol: as §1, §2
molecule,measurement,setting,value
"Mesd: Recombinant full-length mouse Mesd expressed in E. coli, N-terminal polyhistidine tail, lacking the signal peptide (protein, left off: small tags and cut ends, Recombinant full-length mouse Mesd expressed in E. coli, N-terminal polyhistidine tail, lacking the signal peptide) ADTPGEATPPPRKKKDIRDYNDADMARLLEQWEKDDDIEEGDLPEHKRPSAPIDFSKLDPGKPESILKMTKKGKTLMMFVTVSGNPTEKETEEITSLWQGSLFNANYDVQRFIVGSDRAIFMLRDGSYAWEIKDFLVSQDRCAEVTLEGQMYPGKGGGSKEKNKTKPEKAKKKEGDRKPRASKEDNRAGSRREDL",Specific Mesd binding to U87 or SMC,LRP,minimal
same,Reduction in binding of 125I-DKK1 to LRP5,LRP5 [1],small but significant reduction
same,Effect on Wnt3a CM-increased cell growth,HCC1187 cells,abolished
same,Wnt signaling in tumors compared to control treatment,Wnt signaling,decreased Wnt signaling
same,Mesd binding to LRP5,LRP5 [2],"specifically binds to Mesd, albeit at lower levels compared to LRP6"
